This note sets out measurements from the nanobody polyreactivity screen of Harvey et al. (2022).

This data set in a line: yeast display, Sf9 membrane polyspecificity reagent, FACS + sequencing; frameworks hold sequencing errors. The essentials: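 Galactose-induced (36–48 hours) yeast carrying a synthetic nanobody display library were exposed to 10% biotinylated, detergent-solubilized Sf9 membrane reagent at 4 °C for 1 hour. FACS followed streptavidin microbead enrichment, using low and high (top ~1%) gates for expression (anti-HA) and reagent binding (streptavidin). Colony PCR, MiSeq 2 × 250 sequencing and CDR-length filtering followed. Labels for polyreactivity reflect the gate of origin.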
Consider “QVQLVESGGGLVQAGGSLRLSCAASGRTITRNAMGWYRQAPGKERELVASINRGGITYYADSVKGRFTISRDNAKNTVYLQMNSLKPEDTAVYYCATRPWRSPWGYYDYWGQGTQVTVSS”, for which the “polyreactivity (PSR sort gate)” value is listed as “high polyreactivity”.

For “QVQLVESGGGLVQAGGSLRLSCAASGRTITWNAMGWYRQAPGKERELVADITNNGGSTYYADSVKGRFTISRDNAKNTVYLQMNSLKPEDTAVYYCAKRRNYWFSFDYWGQGTQVTVSS”, the “polyreactivity (PSR sort gate)” value is listed as “low polyreactivity”.

As to “QVQLVESGGGLVQAGGSLRLSCAASGRTIWTYVMGWYRQAPGKERELVAAISRSGSSTYYADSVKGRFTISRDNAKNTVYLQMNSLKPEDTAVYYCAASSPWEQSHDQFYYWGQGTQVTVTS”, the “polyreactivity (PSR sort gate)” value is “low polyreactivity”.

As for “QVQLVESGGGLVQAGGSLRLSCAASGRTIWVYTMGWYRQAPGKERELVATINYRGGSTYYADSVKGRFTISRDNAKNTVYLQMNSLKPEDTAVYYCAADYSPPYPRYPYDYWGQGTQVTVSS”, the “polyreactivity (PSR sort gate)” value is recorded as “high polyreactivity”.

As to “QVQLVESGGGLVQAGGSLRLSCAASGRTIWYYAMGWYRQAPGKERELVASITRSGGSTYADSVKGRFTISRDNAKNTVDLQMNSLKPEDTAVYYCAATRPRIPVYQNNYGYWGQGSQVTVSS”, the “polyreactivity (PSR sort gate)” value is recorded as “high polyreactivity”.

For “QVQLVESGGGLVQAGGSLRLSCAASGRTIYRYALGWYRQAHGKERELVSRIRSGGSTNYADSVKGRFTISRDNAKNTVYLQMNSLKPEDTAVYYCAARVLDLGKNTYYRYALGYWGQGTQVTVSS”, the “polyreactivity (PSR sort gate)” value was “high polyreactivity”.

In the case of “QVQLVESGGGLVQAGGSLRLSCAASGRTIYYYAMGWYRQAPGKEREFVAAISWHGGSTYYADSVKGRFTISRDNAKNTVYLQMNSLKPEDTAVYYCAADIYLRGFHYDYWGQGTQVTVSS”, the “polyreactivity (PSR sort gate)” value was “low polyreactivity”.

Regarding “QVQLVESGGGLVQAGGSLRLSCAASGRTLAGNAMGWYRQAPGQERELVAAISQGGGSTYYADSVKGRFTISRDKAKNTVYLQMNSLKPEDTAGYYCAAEIPRLWASFATLWYDYWGQGTQVTVSS”, the “polyreactivity (PSR sort gate)” value is given as “low polyreactivity”.

For “QVQLVESGGGLVQAGGSLRLSCAASGRTLAPYAMGWYRQAPGKARELVADIDRGGGSTYYADSVKGSFTISRDNAKNTVYLQMNSLKPEDTAVYYCNVDEPGVLVAYSLDFWGQGSQVTVSS”, the “polyreactivity (PSR sort gate)” value is given as “low polyreactivity”.

Consider “QVQLVESGGGLVQAGGSLRLSCAASGRTLAPYAMGWYRQAPGKERELVAISTIGGSTYYADSVKGRFTISRDNAKNTVYLQMNSLKPEDTAVYYCAADGNSTGVYLDGGEGFAYDYWGQGTQVTVSS”, for which the “polyreactivity (PSR sort gate)” value was “low polyreactivity”.

Regarding “QVQLVESGGGLVQAGGSLRLSCAASGRTLARNAMGWDRQAPGKERELVASINGRTTRTYYADSVKGRFTISRDNAKNTVYLQMNSLKPEDTAVYYCAADPPGYVYGKRYYWGQGTQVTVSS”, the “polyreactivity (PSR sort gate)” value was “high polyreactivity”.

For the sequence “QVQLVESGGGLVQAGGSLRLSCAASGRTLARNAMGWYRQAPGKEREFVASINGRTTRTYYADSVKGRFTISRDNAKNTVYLQMNSLKPEDTAVYYCAADPPGYVYGKRYYWGQGTQVTVSS”, the “polyreactivity (PSR sort gate)” value was “high polyreactivity”.

Regarding “QVQLVESGGGLVQAGGSLRLSCAASGRTLARNAMGWYRQAPGKERELVASINGRTTRTYYADSVKGRFTISRDNAKNTVYLQMNSLKPADTAVYYCAAAVRYRKYNYWGQGTQVTVSS”, the “polyreactivity (PSR sort gate)” value is “high polyreactivity”.

On to “QVQLVESGGGLVQAGGSLRLSCAASGRTLDKYTLGWYRQAPGKERELVASITSGGSTNYADSVKGRFTISRDNAKNTVYLQMNTLKPEDTAVYYCNKRRRVSKMGQGYDYWGQGTQVTVTS”, for which the “polyreactivity (PSR sort gate)” value is “low polyreactivity”.

Turning to “QVQLVESGGGLVQAGGSLRLSCAASGRTLDKYTMGGYRQAPGKERELVASITSGGSTNYADSVKGRFTISRDNAKNTVYLQMNSLKPEDTAVYYCASGNWVLWNPGYDYWGQGTQVTVSS”, the “polyreactivity (PSR sort gate)” value is reported as “low polyreactivity”.

Regarding “QVQLVESGGGLVQAGGSLRLSCAASGRTLDVNAMGWYRQAPGKEKELVAAIDWGVGTTYYADSVKGRFTISRDNAKNTVYLQMNSLKPEDTAVYYCSVDVYYSVYGYPVQYYYWGQGNQVTVSS”, the “polyreactivity (PSR sort gate)” value is recorded as “high polyreactivity”.

For “QVQLVESGGGLVQAGGSLRLSCAASGRTLFPYAMGWYIQAPGKERELVAAITSRGTSTYYADSVKGRFTISRDIAKNNVYLQMNSLKPEDTAVYYCAKDGWFWGWRFDYCGQGTQVTVSS”, the “polyreactivity (PSR sort gate)” value is “low polyreactivity”.

“QVQLVESGGGLVQAGGSLRLSCAASGRTLFYYTMGWYRQAPGKERELVAAITTGGRTYYADSVKGRFTISRDNAKNTVYLQMNSLKPEDTAVYYCAAHTYYYPVGFNYWGQGTQVTVSS”: the “polyreactivity (PSR sort gate)” value was “low polyreactivity”.

For the sequence “QVQLVESGGGLVQAGGSLRLSCAASGRTLFYYTMGWYRQAPGKVRELVAAITTGGRTYYADSVKGRFTISRDNAKNTVYLQMNSLNPEDTAVYYCAAHTYYYPVGFNYWGPGTQVTVSS”, the “polyreactivity (PSR sort gate)” value is “low polyreactivity”.

With “QVQLVESGGGLVQAGGSLRLSCAASGRTLGANAMGWYRQAPGKERELVAAITDSGGSTYYADSVKGRFTISRDNAKNTVYLQMNSLKPEDTAVYYCAAKQAYSSTYVWPIFDYWGQGTQVTVSS”, the “polyreactivity (PSR sort gate)” value is recorded as “low polyreactivity”.

For “QVQLVESGGGLVQAGGSLRLSCAASGRTLGWYAMGWYRQAPGKERELVATISITGGSTYYADSVKGRFTISRDNAKNTVYLQMNSLKPEDTAVYYCAARHGSRRRYYYWGQGTQVTVSS”, the “polyreactivity (PSR sort gate)” value is reported as “high polyreactivity”.

In the case of “QVQLVESGGGLVQAGGSLRLSCAASGRTLHAYTMGWYRQAPGKERELVAAITRGGGNTYYADSVKGRFTISRDNAKNTVYLQMNSLKPEDTAVYYCAKDYGYQGHTRTLYWAYLEYDYWGQGTQVTVSS”, the “polyreactivity (PSR sort gate)” value is reported as “low polyreactivity”.

In the case of “QVQLVESGGGLVQAGGSLRLSCAASGRTLHYYAMGWYRQAPGKERELVAAISRTGSTDYADSVKGRFTISRDNAKNTVYLQMNSLKPEDTAVYYCAAYYRYRSGRYYYWGQGTQVTVSS”, the “polyreactivity (PSR sort gate)” value was “high polyreactivity”.

With “QVQLVESGGGLVQAGGSLRLSCAASGRTLIYNAMGWYRQAPGKERELVAAITGGGGRTYYADSVKGRFTISRDNAQNTVYLQMNSLKPEDTAVYYCAAGETFEMNYWGQGTQVTVSS”, the “polyreactivity (PSR sort gate)” value was “low polyreactivity”.

Regarding “QVQLVESGGGLVQAGGSLRLSCAASGRTLKWYAMGWDRQAPGKERELVAAISWSGGSTYYADSVKGRFTISRDNAKNTVYLQMNSLKPEDTSVYYCAVAVTSYSSKKLYYWGQGTQVTVSS”, the “polyreactivity (PSR sort gate)” value was “low polyreactivity”.

As to “QVQLVESGGGLVQAGGSLRLSCAASGRTLKYNAMGWYRQAPGKERELVAAISYSGSSTYYADSVNGRFTISRDKAKHTVYLQMNSLKPEDTEVYYCNTARPTAAYDYWGQGTQVTVSS”, the “polyreactivity (PSR sort gate)” value is “low polyreactivity”.

As for “QVQLVESGGGLVQAGGSLRLSCAASGRTLLYYAMGWYRQAPGKERELVAAISRSGGSTSYADSVKGRFTISRDNAKNTVYLQMNSLKPEDTAVYYCNAPRYYYWGQGTQVTVSS”, the “polyreactivity (PSR sort gate)” value is on record as “high polyreactivity”.

Turning to “QVQLVESGGGLVQAGGSLRLSCAASGRTLPGYVMGWYRQEPGKERELVSTISSGDRTNYADSVKGRFTISRDNAKNTVYLQMNSLKPEETAVYYCAAPYVASGYYIWSPWLYDSWGQGTQVTVSS”, the “polyreactivity (PSR sort gate)” value is on record as “low polyreactivity”.

As to “QVQLVESGGGLVQAGGSLRLSCAASGRTLPVYAMGWYRQAPGKERELVAAITYSGGSTSYADYVKGRFTISRDNAKNTVYLQMNTLKPDDTAVYYCAAGYRYSEYYYWGQGTQVTVSS”, the “polyreactivity (PSR sort gate)” value is “low polyreactivity”.

Take “QVQLVESGGGLVQAGGSLRLSCAASGRTLQGYAMGWYRQAPGKERELVAAISRGGGSTYADSVKGRFTISRDNAKNTVYLQMNSLKPEDTAVYYCAAVRGIYGGHYFRYEYWGQGTQVTVSS”: the “polyreactivity (PSR sort gate)” value is “high polyreactivity”.

On to “QVQLVESGGGLVQAGGSLRLSCAASGRTLQRNAMGWYRQAPGKERELVADISWSGASTYYADSVKGRFTISRDNAKNTVYLQMNSLKPEDTAVYYCAATYIDRGNIYDYWGQGTQVTVSS”, for which the “polyreactivity (PSR sort gate)” value is “high polyreactivity”.

On to “QVQLVESGGGLVQAGGSLRLSCAASGRTLQWNAMGWYRQAPGKERELVATISSGGSTKYADSVKGRFTISRDNAKNTVYLQMNSLKPEDTAVYYCNAQPFGMYYHRYYYWGQGTQVTVSS”, for which the “polyreactivity (PSR sort gate)” value is listed as “low polyreactivity”.

“QVQLVESGGGLVQAGGSLRLSCAASGRTLRKYAMGWYRQAPGKERELVAAISSSGGNTYYADSVKGRFTISRDNAKNTVYLQMNSLKPEDTAVYYCAAGFYYPTARVGYYYWGQGTQVTVSS”: the “polyreactivity (PSR sort gate)” value was “high polyreactivity”.

With “QVQLVESGGGLVQAGGSLRLSCAASGRTLRTYAMGWYRQAPGKERELVAAITSSGGRTYYADSVKGRFTISRDNAKNTVYLQMNSLKPEDTAVYYCAAARYYYGGDYWGQGTQVTVSS”, the “polyreactivity (PSR sort gate)” value was “high polyreactivity”.

As for “QVQLVESGGGLVQAGGSLRLSCAASGRTLRTYTMGWYRQAPGKERELVAAISSSDDSTYYADSVKGRFTISRDNEKNTVYLQMNSLKPEDNAVYSCAKDGLYPTEYGYWGQGTQVTVSS”, the “polyreactivity (PSR sort gate)” value is on record as “high polyreactivity”.

For “QVQLVESGGGLVQAGGSLRLSCAASGRTLRYYAMGWYRQAPGKERELVAAISRRGGRTYYADSVKGRFTISRDNAKNTVYLQMNSLKPEDTAVYYCNARYDVYRWRYDYDYWGQGTQVTVSS”, the “polyreactivity (PSR sort gate)” value is “high polyreactivity”.

“QVQLVESGGGLVQAGGSLRLSCAASGRTLSHYAMGWYRQAPGKERELVAAISQSGGSTRYADSVKGRFTISRDNAKNTVYLQMISLKPEDTAVYYCAVRQLYSYPGDRRGYYWGQGTQVTVSS”: the “polyreactivity (PSR sort gate)” value was “high polyreactivity”.

“QVQLVESGGGLVQAGGSLRLSCAASGRTLSRNAMGWYRQAPGKERELVAAINYSGGITYYADSVKGRFTISRDNAKNTVYLQMNSLKPEDTAVYYCAATVKYWGQGTQVTVSS”: the “polyreactivity (PSR sort gate)” value was “high polyreactivity”.

Take “QVQLVESGGGLVQAGGSLRLSCAASGRTLSVNAMGWYRQAPGKERELVAAITWGGGSTYYADSVKGRFTISRDNAKNTVYLQMNSLKPEDTAVYYCNADPGWTELEYDYWGQGTQVTVSS”: the “polyreactivity (PSR sort gate)” value is recorded as “low polyreactivity”.

Regarding “QVQLVESGGGLVQAGGSLRLSCAASGRTLSYNTMGWYRQAPGKEREFVAANTWSGGSTNYADSVKGRFTISRDNAKNTVYLQMNSLKPEDTAVYYCNADYLTVSWSIPEHVTVRLMYYWGQGTQVTVSS”, the “polyreactivity (PSR sort gate)” value is “low polyreactivity”.

Consider “QVQLVESGGGLVQAGGSLRLSCAASGRTLTGNAMGWYRQAPGKERELVAAISWSAGSTYYADSVKGRFTISRDNAKNTVYLQMNSLKPEDTAVYYCALTLRRNLVRMGYWGLGTQVTVSS”, for which the “polyreactivity (PSR sort gate)” value is “high polyreactivity”.
